Data: PMC5389710

Target: Arabidopsis thaliana NAP1-related protein 1 (NRP1) (A. thaliana) (UniProt Q9CA59)
Test: ITC

Sequence of Arabidopsis thaliana NAP1-related protein 1 (NRP1) (A. thaliana) (Q9CA59 whole entry): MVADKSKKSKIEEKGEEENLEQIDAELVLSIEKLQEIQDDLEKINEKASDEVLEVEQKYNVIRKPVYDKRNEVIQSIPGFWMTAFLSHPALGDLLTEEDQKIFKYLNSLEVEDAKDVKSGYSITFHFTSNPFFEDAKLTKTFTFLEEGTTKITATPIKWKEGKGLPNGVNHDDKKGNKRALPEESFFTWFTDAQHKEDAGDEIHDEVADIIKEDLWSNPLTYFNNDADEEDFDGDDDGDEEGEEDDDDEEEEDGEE

Substance: Arabidopsis thaliana cytochrome c (from UniProt Q9T0G2 1-112) (natural protein)
- Kd: 5000 nM

Substance: Chicken erythrocyte H2A–H2B histone dimer (from UniProt P02263 1-129; P0C1H3 1-126) (complex)
- Kd: 100 nM

Substance: Xenopus laevis core histone H4 (from UniProt P62799 1-103) (natural protein)
- dH: -10.4 kcal/mol
